Here are results for 9 molecules from PMC2613638 (The Journal of Biological Chemistry, 2009).

For data set [1], the target named is T1, human CMKLR1 (Homo sapiens, UniProt Q99788).
T1 sequence (Q99788 1-373): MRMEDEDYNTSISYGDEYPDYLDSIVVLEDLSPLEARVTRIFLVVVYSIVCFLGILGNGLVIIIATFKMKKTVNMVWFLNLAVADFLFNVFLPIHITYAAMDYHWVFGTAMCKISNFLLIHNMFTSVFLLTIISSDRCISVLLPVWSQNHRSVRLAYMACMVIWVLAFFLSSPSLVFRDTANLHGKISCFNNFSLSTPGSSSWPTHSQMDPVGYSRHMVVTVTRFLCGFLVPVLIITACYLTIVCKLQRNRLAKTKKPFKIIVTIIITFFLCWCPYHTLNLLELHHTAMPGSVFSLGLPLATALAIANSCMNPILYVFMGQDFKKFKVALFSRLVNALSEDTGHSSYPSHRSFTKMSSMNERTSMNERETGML
Description: In vitro transwell chemotaxis of CMKLR1/L1.2 transfectants. The format is cell-based.

Data set [2] addresses T2, CPN (Homo sapiens, UniProt P15169).
T2 sequence (P15169 21-458): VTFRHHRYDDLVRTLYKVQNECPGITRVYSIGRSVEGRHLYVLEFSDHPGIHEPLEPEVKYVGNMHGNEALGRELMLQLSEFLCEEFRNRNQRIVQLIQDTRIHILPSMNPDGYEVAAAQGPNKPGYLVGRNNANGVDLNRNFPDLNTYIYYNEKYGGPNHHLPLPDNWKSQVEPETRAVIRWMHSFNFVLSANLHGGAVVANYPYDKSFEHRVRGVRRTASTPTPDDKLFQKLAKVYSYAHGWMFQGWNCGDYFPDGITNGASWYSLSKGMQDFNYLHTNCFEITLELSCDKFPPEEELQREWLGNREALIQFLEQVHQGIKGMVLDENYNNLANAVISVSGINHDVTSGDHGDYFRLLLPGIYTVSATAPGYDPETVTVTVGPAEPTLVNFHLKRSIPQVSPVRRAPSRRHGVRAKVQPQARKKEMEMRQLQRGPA
The settings on record: CPN cleavage of comparison peptides; cited from earlier work.

Data set [3] concerns the target T3, CPB (TAFIa) (Homo sapiens, UniProt Q96IY4).
T3 sequence (Q96IY4 115-423): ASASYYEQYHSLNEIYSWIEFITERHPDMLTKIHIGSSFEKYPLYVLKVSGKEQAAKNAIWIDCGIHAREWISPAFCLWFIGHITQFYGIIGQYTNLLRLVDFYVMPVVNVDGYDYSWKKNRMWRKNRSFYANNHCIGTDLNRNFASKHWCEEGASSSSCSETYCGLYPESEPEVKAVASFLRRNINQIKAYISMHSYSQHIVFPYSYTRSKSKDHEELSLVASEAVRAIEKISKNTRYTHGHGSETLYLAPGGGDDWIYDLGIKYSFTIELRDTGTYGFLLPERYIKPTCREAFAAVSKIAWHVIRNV
The settings on record: CPB cleavage of comparison peptides; cited from earlier work.

Data set [4] concerns Cathepsin G. The settings on record: cited from earlier work.
Data set [5] relates to Tryptase. The settings on record: cited from earlier work.
For data set [6], the system named is plasmin. As to the kind of experiment: plasmin. The settings on record: human.
In data set [7] the test system is Elastase. The settings on record: cited from earlier work.
The subject of data set [8] is Staphopain B. The settings on record: cited from earlier work.
Data set [9] concerns Human plasmin. Description: plasmin. The settings on record: 37°, up to 30 min.
Data set [10] concerns plasmin followed by CPN. Description: plasmin. The settings on record: 37 °C, up to 30 min plasmin, then 30 min CPN.
Data set [11] deals with plasmin followed by CPB. Description: plasmin. The settings on record: human, 37 °C, up to 30 min plasmin, then 30 min CPB.
The subject of data set [12] is washed platelets. As to the kind of experiment: Chemerin release from washed platelets. The format is cell-based, human. The settings on record: 37 °C for 3 min; thrombin receptor-activating peptide 20 μM, collagen 10 μg/ml, ADP 10 μM; Fig. 6C.

“And” between values parts separate entries of the source, which are not always exact repeats. Equal values may be shown once.

Consider `N=C(N)NCCSCC(CS)C(=O)O` (racemic) [MGTA, DL-2-Mercaptomethyl-3 guanidinoethylthiopropanoic acid], for which the “effect on PPP-induced increase of bioactivity of plasmin-cleaved prochemerin” value in [1] (MGTA 5 μM in PPP, treated prochemerin 0.2 nM, Fig. 4B) is listed as “inhibited”.
Regarding “Bradykinin (RPPGFSPFR; Bradykinin; UniProt P01042 381-389, looked up)”, in data set [2], the Km (usually the concentration of substrate that gives half-maximal velocity) was 303 ± 29.1 µM; the kcat (usually the number of substrate molecules converted per active site and unit of time at saturation) was 9.1 ± 0.2 s⁻¹; the kcat/Km – broadly, the turnover number divided by the Michaelis constant – is 30000 M⁻¹ s⁻¹. Moreover, in data set [3], the Km was 70.6 ± 4.8 µM, the kcat is 19.7 ± 4.8 s⁻¹ and the kcat/Km was 280000 M⁻¹ s⁻¹.
With “C3a^69-77: comparison substrate peptide derived from C3a (RASHLGLAR; C3a anaphylatoxin; UniProt P01024 740-748, looked up, fragment)”, in data set [2], the Km was 77.1 ± 11.2 µM, the kcat was 57.9 ± 2.1 s⁻¹ and the kcat/Km is 750000 M⁻¹ s⁻¹. Further, in [3], the Km was 35.9 ± 6.6 µM, the kcat is 8.4 ± 0.6 s⁻¹ and the kcat/Km is 230000 M⁻¹ s⁻¹.
For “C5a^66-74: comparison substrate peptide derived from C5a (SHKDMQLGR; C5a anaphylatoxin; UniProt P01031 743-751, looked up, fragment)”, in data set [2], the Km was 602 ± 74.3 µM, the kcat was 9.3 ± 0.4 s⁻¹ and the kcat/Km is 15000 M⁻¹ s⁻¹. Moreover, in [3], the Km was 219 ± 16.2 µM, the kcat was 29.5 ± 0.7 s⁻¹ and the kcat/Km was 130000 M⁻¹ s⁻¹.
On to NH2-ADPELTEAQ...FAFSKALPRSPHHHHHH-COOH, for which the fragment found result was “...YFPGQFAF (21-156)” in [4]; “...YFPGQFAFSK (21-158) and ...YFPGQFA (21-155)” in data set [5]; “NH2-YFPGQFAFSK-COOH form (21-158)” in data set [6]; “...YFPGQFAFS (21-157) and ...YFPGQFA (21-155) and ...YFPG (21-152)” in data set [7]; “...YFPGQFAFS (21-157)” in data set [8].
For the molecule YFPGQFAFSKALPRS, the fragment found was 10-mer (YFPGQFAFSK) in data set [9], 9-mer (YFPGQFAFS) in data set [10] and 9-mer (YFPGQFAFS) in [11].
On to collagen, for which the “release of chemerin from washed platelets” value in data set [12] is listed as “induced the release of chemerin”.
Consider thrombin, for which the “chemerin activities of PPP after addition of thrombin” value in data set [1] (thrombin 5 units/ml added to PPP, 37 °C 5 min, Fig. 6B) is “had no effect”. Moreover, the “chemotaxis of CMKLR1-transfected cells” value in [1] (thrombin itself) was “did not induce the chemotaxis”.

B1: prochemerin: recombinant full-length prochemerin with carboxyl-terminal His6 tag, expressed in insect cells (protein, UniProt Q99969 21-163, looked up)
pro-form: ELTEAQRRGLQVALEEFHKHPPVQWAFQETSVESAVDTPFPAGIFVRLEFKLQQTSCRKRDWKKPECKVRPNGRKRKCLACIKLGSEDKVLGRLVHCPIETQVLREAEEHQETQCLRVQRAGEDPHSFYFPGQFAFSKALPRS
modifications: pro-form C-terminal His6 tag
For B1, the “CMKLR1-mediated chemotaxis after treatment with CPN and CPB alone” value in data set [1] (data not shown) is “did not induce CMKLR1-mediated chemotaxis”. Moreover, the “chemotactic activity after sequential treatment with plasmin and CPN or CPB” value in data set [1] (plasmin 1 μM, CPN or CPB 30 nM, final chemerin concentration 0.5 nM, Fig. 3B) is recorded as “dramatically enhanced”. Also, the “chemotactic bioactivity after plasmin alone” value in data set [1] (prochemerin activation by plasmin, dose-response, Fig. 3A) is “increased its chemotactic bioactivity”.
